Test results published in PMC11633749, “Identification of the Wnt signal peptide that directs secretion on extracellular vesicles” (Science Advances, 2024).
Each block holds one binder with its values, some of them ahead of it.

Experiments:
[1] = molecular target: T1, COPB2_(1–304), N-terminal WD repeat of COPB2 (S. cerevisiae, UniProt P41811 1-304); assay: ITC; 450 μM of each peptide titrated into 20 μM COPB2 1-304; 25°C; 150 mM NaCl, 0.5 mM TCEP, 25 mM Hepes pH 7.5; one-site model; settings: both partners purified
T1 construct: COPB2 (coatomer beta'), residues 1-304, N-terminal WD repeat domain; residues are counted in 'Saccharomyces cerevisiae COPB2 numbering'; PDB 2YNN (COPB2 1-304) served as search model; codon-optimised synthetic gene; also called WD-repeat domain of COPB2; source: E. coli BL21(DE3), purified (Ni-NTA, tag cleavage, ion exchange, SEC); not shown: 6xHis-Sumo3, N-terminal, cleaved
T1 sequence (looked up): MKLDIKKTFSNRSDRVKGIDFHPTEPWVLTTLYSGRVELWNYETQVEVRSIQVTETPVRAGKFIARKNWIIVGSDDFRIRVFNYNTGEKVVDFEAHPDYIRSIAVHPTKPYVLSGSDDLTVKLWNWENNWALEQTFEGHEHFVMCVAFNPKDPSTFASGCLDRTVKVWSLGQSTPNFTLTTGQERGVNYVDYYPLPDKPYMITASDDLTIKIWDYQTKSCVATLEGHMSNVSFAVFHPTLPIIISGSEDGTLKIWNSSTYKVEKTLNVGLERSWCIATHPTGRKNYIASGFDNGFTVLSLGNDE

[2] = molecular target: T2, COPB2_(1–304), N-terminal WD repeat of COPB2 (S. cerevisiae, UniProt P41811 1-304); assay: ITC
T2 chain: T1 sequence (looked up)

- Kd [1]: 11.6 µM
B1: exosome-binding peptide (EBP), 18-amino acid polypeptide of Wnt7a (240-257) (peptide)
peptide: PVRASRNKRPTFLKIKKP
notes: also called 18–amino acid EBP polypeptide

- Kd [2]: 6 µM
B2: EBP peptide K256A (peptide)
chain: PVRASRNKRPTFLKIKAP

- Kd [1]: 37.2 µM
B3: Wnt_(252–257) peptide (LKIKKP) (peptide)
peptide: LKIKKP
notes: also called C-terminal half of the polypeptide

- Kd [2]: 47.2 µM
B4: EBP peptide K253A (peptide)
chain: PVRASRNKRPTFLAIKKP
